In patent US20230338589A1 one finds Kd, surface binding (% of activity) and internalization (% internalized activity) in TUBO cells preincubated with IFN-γ data, which are given here for two molecules.

The target of experiment [1] is T1, interferon gamma (IFN-γ), murine, recombinant (mouse) (UniProt P01580).
T1 sequence (looked up): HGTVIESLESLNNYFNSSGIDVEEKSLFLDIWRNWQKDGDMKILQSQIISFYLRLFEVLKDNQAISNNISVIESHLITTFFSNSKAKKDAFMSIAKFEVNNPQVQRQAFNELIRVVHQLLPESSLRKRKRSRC
As to the kind of experiment: Octet (BLI) analysis of binding affinity; format not stated. (Biolayer interferometry detects binding as a change in optical thickness at a sensor tip.)

For experiment [2], the target named is T1, interferon gamma (IFN-γ), murine, recombinant (mouse). As to the kind of experiment: radioligand cell assay: TUBO cells preincubated with recombinant IFN-γ (10 ng/mL), washed, then incubated with tracer 1 h at 37 C; acid-wash fraction read by gamma counter; background without IFN-γ 1.13 ± 0.28%.
The target is the same in experiment [3]. As to the kind of experiment: cell-based or functional assay.

Consider “anti-IFN-γ diabody (homodimer of the single chain Fv derived from clone AN18, produced in CHO cells)”, for which the Kd in experiment [1] worked out at 37.9 nM.

B1: ^89Zr-anti-IFN-γ labeled-antibody conjugate (AN-18 conjugated to p-SCN-Bn-desferrioxamine and labeled with ^89Zr) (antibody, rat IgG1, V domains shown)
VH: QVQLKESGPGLVQPSQTLSLTCTVSGFSLDSYNVHWVRQPPGKGLEWMGRMKYNGDTSYNSALKSRLRISRDTSKNQVFLKMNSLQTDDTGTYYCTRDWHYGYPSPYFEFWGQGVMVTVSS
VL: DVQMTQSPSYLAASPGESVSISCKASKNINTYLAWYQEKPGKTNKLLIYSGSTLQSGTPSRFSGSGSGTDFTLTIRSLEPEDFAVYYCQQHNEYPLTFGSGTKLEVKR
modifications: p-SCN-Bn-Desferrioxamine (DFO) conjugated to the antibody (Ab:DFO 1:5), chelating ^89Zr; sites not stated
As to B1, the surface binding (% of activity) in experiment [2] is 13.6%. In addition, the internalization (% internalized activity) in TUBO cells preincubated with IFN-γ in experiment [3] is 3.93%.

In general, Kd refers to a measure of binding affinity in units of concentration.
